Data: US20100286027A1, “ANTI-BACTERIAL COMPOSITIONS” (priority 2008, published 2010)
In brackets after ≈: the same amount, converted by molar mass.

What was measured:
[1] = system: E. coli NB27004; test: MIC against aerobic gram negative bacteria; type: cell-based, Escherichia coli
[2] = system: E. coli NB27005* (TolC efflux pump mutant); test: MIC against aerobic gram negative bacteria, efflux pump mutant; type: cell-based, Escherichia coli
[3] = system: P. aeruginosa NB52019; test: MIC against aerobic gram negative bacteria; type: cell-based, Pseudomonas aeruginosa
[4] = system: P. aeruginosa NB52020* (mexAB/oprM efflux pump mutant); test: MIC against aerobic gram negative bacteria, efflux pump mutant; type: cell-based, Pseudomonas aeruginosa
[5] = system: H. influenzae NB65027-CDS0021* (TolC efflux pump mutant); test: as above; type: cell-based, Haemophilus influenzae
[6] = system: H. influenzae NB65027; test: microbe, parasite or virus in culture; conditions: Haemophilus influenzae, NB65027, read-out: minimal inhibitory concentration (MIC)
[7] = system: E. coli; test: Bacterial growth inhibition (FIG. 15); type: cell-based, Escherichia coli; conditions: FIG. 15 Panel B
[8] = system: L. monocytogenes; test: Bacterial growth inhibition (FIG. 15); type: cell-based, Listeria monocytogenes; conditions: FIG. 15 Panel C
[9] = system: H. influenzae NB65027; conditions: aerobic gram negative
[10] = system: lawn of the indicated bacteria; test: Agar diffusion assay; conditions: FIG. 11 Panel D; 0.5 mg/ml in sterile PBS per well
[11] = system: Listeria monocytogenes (7644); test: BacTiter-Glo bacterial ATP content viability assay; conditions: Listeria monocytogenes (7644), gram +; +/− SD, n = 3; >100 = activity detected but <50% inhibition
[12] = system: Bacillus Subtilis (6633); test: BacTiter-Glo bacterial ATP content viability assay; conditions: Bacillus Subtilis (6633), gram +; +/− SD, n = 3; >100 = activity detected but <50% inhibition
[13] = system: Enterococcus faecalis (29212); test: BacTiter-Glo bacterial ATP content viability assay; conditions: Enterococcus faecalis (29212), gram +; +/− SD, n = 3; >100 = activity detected but <50% inhibition
[14] = system: Staphylococcus aureus (29213); test: BacTiter-Glo bacterial ATP content viability assay; conditions: Staphylococcus aureus (29213), gram +; +/− SD, n = 3; >100 = activity detected but <50% inhibition
[15] = system: Streptococcus pneumoniae (49619); test: BacTiter-Glo bacterial ATP content viability assay; conditions: gram +, +/− SD, n = 3, >100 = activity detected but <50% inhibition
[16] = system: Escherichia coli (8739); test: BacTiter-Glo bacterial ATP content viability assay; conditions: gram −, +/− SD, n = 3, >100 = activity detected but <50% inhibition
[17] = system: Escherichia coli (25922); test: BacTiter-Glo bacterial ATP content viability assay; conditions: gram −, +/− SD, n = 3, >100 = activity detected but <50% inhibition
[18] = system: Klebsiella pneumoniae (700603); test: BacTiter-Glo bacterial ATP content viability assay; conditions: gram −, +/− SD, n = 3, >100 = activity detected but <50% inhibition
[19] = system: Pseudomonas aeruginosa (27853); test: BacTiter-Glo bacterial ATP content viability assay; conditions: gram −, +/− SD, n = 3, >100 = activity detected but <50% inhibition
[20] = system: Salmonella choleraesuis (13076); test: BacTiter-Glo bacterial ATP content viability assay; conditions: gram −, +/− SD, n = 3, >100 = activity detected but <50% inhibition
[21] = system: Stenotrophomonas maltophilia (17666); test: BacTiter-Glo bacterial ATP content viability assay; conditions: gram −, +/− SD, n = 3, >100 = activity detected but <50% inhibition
[22] = Escherichia coli, read-out: minimal inhibitory concentration (MIC)
[23] = Pseudomonas aeruginosa, read-out: minimal inhibitory concentration (MIC)

CN(C)[C@@H]1C(O)=C(C(N)=O)C(=O)[C@@]2(O)C(O)=C3C(=O)c4c(O)cccc4[C@@](C)(O)[C@H]3C[C@@H]12 [Tetracycline, reference compound]
MIC [1, 22]: 4 µg/mL (≈ 9 µM)
MIC [2, 22]: 0.5 µg/mL (≈ 1.13 µM)
MIC [3, 23]: 32 µg/mL (≈ 72 µM)
MIC [4, 23]: 1 µg/mL (≈ 2.25 µM)
MIC ([5]; Haemophilus influenzae, read-out: minimal inhibitory concentration (MIC)): 0.5 µg/mL (≈ 1.13 µM)
MIC [6]: 0.5 µg/mL (≈ 1.13 µM)

B1: Nod1: purified recombinant LRR domain of Nod1; human NOD1-LRR is SEQ ID NO: 4 (protein, listed as Homo sapiens)
chain: NKDHFQFTNLFLCGLLSKAKQKLLRHLVPAAALRRKRKALWAHLFSSLRGYLKSLPRVQVESFNQVQAMPTFIWMLRCIYETQSQKVGQLAARGICANYLKLTYCNACSADCSALSFVLHHFPKRLALDLDNNNLNDYGVRELQPCFSRLTVLRLSVNQITDGGVKVLSEELTKYKIVTYLGLYNNQITDVGARYVTKILDECKGLTHLKLGKNKITSEGGKYLALAVKNSKSISEVGMWGNQVGDEGAKAFAEALRNHPSLTTLSLASNGISTEGGKSLARALQQNTSLEILWLTQNELNDEVAESLAEMLKVNQTLKHLWLIQNQITAKGTAQLADALQSNTGITEICLNGNLIKPEEAKVYEDEKRIICF
minimal inhibitory concentration (MIC) [1]: >128 microgram/ml
minimal inhibitory concentration (MIC) ([2]; aerobic gram negative, E. coli NB27005*, TolC efflux pump mutant strain): 32 microgram/ml
minimal inhibitory concentration (MIC) [3]: >128 microgram/ml
minimal inhibitory concentration (MIC) ([4]; aerobic gram negative, P. aeruginosa NB52020*, mexAB/oprM efflux pump mutant strain): >128 microgram/ml
minimal inhibitory concentration (MIC) ([5]; aerobic gram negative, H. influenzae NB65027-CDS0021*, TolC efflux pump mutant strain): 4 microgram/ml
E. coli growth [7]: inhibited
L. monocytogenes growth [8]: inhibited
minimal inhibitory concentration (MIC) [9]: >128 microgram/ml
anti-bacterial activity by agar diffusion assay [10]: Anti-bacterial activity
antibacterial activity by bacterial ATP content (IC50), [LRR domain] [11]: 32.0 +/− 2.1 microgram/ml
antibacterial activity by bacterial ATP content (IC50), [LRR domain] [12]: 15.5 +/− 12.0 microgram/ml
antibacterial activity by bacterial ATP content (IC50), [LRR domain] [13]: >100 microgram/ml
antibacterial activity by bacterial ATP content (IC50), [LRR domain] [14]: 111.3 +/− 13.0 microgram/ml
antibacterial activity by bacterial ATP content (IC50), [LRR domain] [15]: 13.5 +/− 4.9 microgram/ml
antibacterial activity by bacterial ATP content (IC50), [LRR domain] [16]: 29.0 +/− 2.8 microgram/ml
antibacterial activity by bacterial ATP content (IC50), [LRR domain] [17]: >100 microgram/ml
antibacterial activity by bacterial ATP content (IC50), [LRR domain] [18]: 30.8 +/− 4.9 microgram/ml
antibacterial activity by bacterial ATP content (IC50), [LRR domain] [19]: >100 microgram/ml
antibacterial activity by bacterial ATP content (IC50), [LRR domain] [20]: >100 microgram/ml
antibacterial activity by bacterial ATP content (IC50), [LRR domain] [21]: >100 microgram/ml
